# B1: scFv-His6(VL-S93ANBD) conjugate (scFv)
# scFv: EVKLQESGPGLVAPSQSLSITCTVSGFSLTGYGVNWVRQPPGKGLEWLGMIWGDGNTDYNSALKSRLSISKDNSKSQVFLKMNSLHTDDTARYYCARERDYRLDYWGQGTTVTVSSGGGGSGGGGSGGGGSDIELTQSPASLSASVGETVTITCRASGNIHNYLAWYQQKQGKSPQLLVYYTTTLADGVPSRFSGSGSGTQYSLKINSLQPEDFGSYYCQHFWCTPRTFGGGTKLEIKRPLEHHHHHH
# modifications: chain 1 pos 224 (VL Cys93): Cys whose S-gamma is coupled to the fluorophore IANBD (ANBD adduct), written C
# Tests used:
# [1] = target: hen egg white lysozyme (hen) (UniProt P00698); experiment: fluorescence emission, excitation at 469 nm, lysozyme at 100 nM and 1 uM, three preparations
# [2] = target: hen egg white lysozyme (hen) (UniProt P00698); experiment: fluorescence emission after addition of lysozyme, excitation at 469 nm, several preparations
# [3] = target: hen egg white lysozyme (hen) (UniProt P00698); experiment: fluorescence at 535 nm, excitation at 480 nm, lysozyme 10 nM to 2 uM in 50 mM Tris-HCl, 150 mM NaCl, pH 7.5
# Sequence of UniProt P00698 (P00698 19-147 limits assumed): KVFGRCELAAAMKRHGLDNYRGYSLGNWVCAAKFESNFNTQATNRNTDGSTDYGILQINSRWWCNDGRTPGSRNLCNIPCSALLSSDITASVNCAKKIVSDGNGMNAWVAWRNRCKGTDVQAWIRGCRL
binder,measurement,setting,value
B1,maximum enhancement of fluorescence,[1],27%
same,fluorescence intensity at saturation relative to the free biosensor,[2],1.26 times
same,increase of fluorescence intensity at saturation,[3],91%

# Reference: patent publication US20030153012A1
